Data taken from patent publication US20200262869A1, “PEPTIDE ANTIBIOTIC COMPLEXES AND METHODS OF USE THEREOF” (GENENTECH, INC., priority 2017, published 2020).
Converted amounts (≈) assume the structure as drawn.

How the values were obtained:
[1] = test system: MDR K. pneumoniae CDC 0106; assay: MIC against MDR clinical isolate; assay type: cell-based
Method: (§1) Minimum Inhibitory Concentration (MIC). MICs were determined by performing two-fold serial dilutions of compound in Mueller Hinton II cation-adjusted broth to a final volume of 0.1 m1 in round-bottom 96-well assay plates (Corning Life Sciences No 3788). Each well was inoculated with 5×10^5 CFU/ml and incubated at 37° C. without agitation for 18 hours. Plates were scored by eye, and the lowest compound concentration preventing visible growth was determined to be the MIC.

A. baumannii ATCC 17978 = assay: MIC, broth microdilution; assay type: cell-based
Method: as §1

C. werkmanii ATCC 51114 = assay: MIC, broth microdilution; assay type: cell-based
Method: as §1

E. aerogenes ATCC 13408 = assay: MIC, broth microdilution; assay type: cell-based
Method: as §1

E. cloacae ATCC 13407 = assay: MIC, broth microdilution; assay type: cell-based
Method: as §1

E. coli ATCC 25922 = assay: MIC, broth microdilution; assay type: cell-based; conditions: E. coli ATCC 25922
Method: as §1

K. pneumoniae ATCC 43816 = assay: MIC, broth microdilution; assay type: cell-based; conditions: K. pneumoniae ATCC 43816
Method: as §1

P. aeruginosa ATCC 27853 = assay: MIC, broth microdilution; assay type: cell-based
Method: as §1

S. marcescens CDC4385-74 = assay: MIC, broth microdilution; assay type: cell-based
Method: as §1

[2] = biological target: LepB A297V (E. coli ATCC 25922) (E. coli) (UniProt P00803); assay: cell-based or functional assay
[3] = biological target: LepB D143Y (E. coli ATCC 25922) (E. coli) (UniProt P00803); assay: cell-based or functional assay
[4] = biological target: LepB E83K (E. coli ATCC 25922) (E. coli) (UniProt P00803); assay: cell-based or functional assay
[5] = biological target: LepB F85S (E. coli ATCC 25922) (E. coli) (UniProt P00803); assay: cell-based or functional assay
[6] = biological target: LepB L142R (E. coli ATCC 25922) (E. coli) (UniProt P00803); assay: cell-based or functional assay
[7] = biological target: LepB P88L (E. coli ATCC 25922) (E. coli) (UniProt P00803); assay: cell-based or functional assay
[8] = biological target: LepB P88Q (E. coli ATCC 25922) (E. coli) (UniProt P00803); assay: cell-based or functional assay
[9] = biological target: LepB P88R (E. coli ATCC 25922) (E. coli) (UniProt P00803); assay: cell-based or functional assay
[10] = biological target: LepB P88T (E. coli ATCC 25922) (E. coli) (UniProt P00803); assay: cell-based or functional assay
[11] = biological target: LepB V133F (E. coli ATCC 25922) (E. coli) (UniProt P00803); assay: cell-based or functional assay
[12] = biological target: LepB V149(VVGLP) (E. coli ATCC 25922) (E. coli) (UniProt P00803); assay: cell-based or functional assay
[13] = biological target: LepB in E. coli K-12 MG1655 (E. coli) (UniProt P00803); assay: cell-based or functional assay
[14] = biological target: full length recombinant LepB from E. coli (E. coli) (UniProt P00803); assay: kinetic enzyme assay, full-length LepB in detergent micelle, fluorogenic substrate Dabcyl-DAP-PAKAAE-Edans (SEQ ID NO: 6), 2-step irreversible binding model (Dynafit)

Compound: CN(C)c1cc(NC(=O)CNC(C)(C)C)c(O)c2c1C[C@H]1C[C@H]3[C@H](N(C)C)C(O)=C(C(N)=O)C(=O)[C@@]3(O)C(O)=C1C2=O [Tigecycline]
- MIC ([1]; Klebsiella pneumoniae): 2 µg/mL (≈ 3.41 µM)

Compound: CCCCCCCCCCCCCCCC(=O)N(C)[C@H](CO)C(=O)N[C@H](C)C(=O)NCC(=O)N(C)[C@@H]1C(=O)N[C@@H](C)C(=O)N[C@H](C(=O)O)Cc2ccc(O)c(c2)-c2cc1ccc2O [Arylomycin A-C16, reference compound]
- MIC (A. baumannii ATCC 17978): >64 µg/mL
- MIC (C. werkmanii ATCC 51114): >64 µg/mL
- MIC (E. aerogenes ATCC 13408): >64 µg/mL
- MIC (E. cloacae ATCC 13407): >64 µg/mL
- MIC (E. coli ATCC 25922): >64 µg/mL
- MIC (K. pneumoniae ATCC 43816): >64 µg/mL
- MIC (P. aeruginosa ATCC 27853): >64 µg/mL
- MIC (S. marcescens CDC4385-74): >64 µg/mL

Compound: G0775 (peptide)
- Fold MIC Increase [2]: 4 fold
- Fold MIC Increase [3]: 8 fold
- Fold MIC Increase [4]: 16 fold
- Fold MIC Increase [5]: 8 fold
- Fold MIC Increase [6]: 8 fold
- Fold MIC Increase [7]: 16 fold
- Fold MIC Increase [8]: 4 fold
- Fold MIC Increase [9]: 16 fold
- Fold MIC Increase [10]: 4 fold
- Fold MIC Increase [11]: 16 fold
- Fold MIC Increase [12]: 128 fold
- G0775 MIC (µg/ml), MG 1655 - LepB High (Increase LepB expression level) [13]: 1 µg/mL
- G0775 MIC (µg/ml), MG 1655 - LepB Low (Reduced LepB expression level) [13]: 0.008 µg/mL
- G0775 MIC (µg/ml), MG1655 WT [13]: 0.125 µg/mL
- kinact [14]: 0.0007 s⁻¹

Compound: C[C@@H](O)[C@H]1C(=O)N2C(C(=O)O)=C(S[C@@H]3CN[C@H](C(=O)N(C)C)C3)[C@H](C)[C@H]12 [Meropenem]
- MIC ([1]; Klebsiella pneumoniae): > 64 µg/mL

Compound: C[C@H]1COc2c(N3CCN(C)CC3)c(F)cc3c(=O)c(C(=O)O)cn1c23 [Levofloxacin]
- MIC ([1]; Klebsiella pneumoniae): > 64 µg/mL

Compound: Colistin
- MIC ([1]; MDR K. pneumoniae CDC 0106): 16 µg/mL

Compound: Gentamicin
- MIC ([1]; MDR K. pneumoniae CDC 0106): >64 µg/mL
